We go through 30 sequences from the supplement of paper PMC9170038.

In this data set the test system is MS2 coat protein. As to the kind of experiment: apparent KD of MS2 coat protein; designed switch direction (-1 OFF switch, 1 ON switch): -1; higher = weaker reporter binding. Summed up:
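Three titration conditions were used: no input, 200 uM small-molecule ligand, and an oligonucleotide input. In each, SNAP-549-labelled MS2 coat protein was raised from 0.7 or 1.5 nM, doubling, to 3 µM over designed RNA switches transcribed on Illumina chips by stalled E. coli RNA polymerase. Curve fits of normalised cluster fluorescence gave values whose per-design median over clusters is the apparent KD.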

The mark [1] stands for this setting: Eterna round: R95, input ligand: microRNA oligo, concentration not stated.
Where [2] appears, read: input ligand: microRNA oligo, concentration not stated.
Setting [3] is: Eterna round: R95, input ligand: FMN 200 uM.
The mark [4] stands for this setting: Eterna round: R95, input ligand: none.

As to “CUCACGUCAGGAUAUCUACAUUAAAUUGGUAACCAAGCAUGAGAGAAGGGACAUGAGGAUCACCCAUGUAAAAC [Ceisusma] (Eterna round: R97, puzzle: Exclusion 4)”, the “apparent KD of MS2 coat protein” value (input ligand: FMN 200 uM) was determined as 42.4 nM and the “apparent KD of MS2 coat protein” value (input ligand: none) amounted to 48.7 nM.
As for “CUCAUGUCAGGAUAUUAAGUCCGUAGCCUAUGGCUGCAACAUGAGAAGGGACAUGAGGAUCACCCAUGUCGGGA [Edceleon] (puzzle: Exclusion 4)”, under setting [1], the “apparent KD of MS2 coat protein” value was 34.3 nM.
In the case of “CUCAUGUGAGGAUAUGUGCUGAUCUGUACUGUGAUUAGAGAACAGAAGGUACAUGAGGAUCACCCAUGUACACG [Eternabot (L2) Solution 46] (Eterna round: R97, puzzle: Exclusion 4)”, the “apparent KD of MS2 coat protein” value (input ligand: FMN 200 uM) was determined as 354 nM and the “apparent KD of MS2 coat protein” value (input ligand: none) is 14.7 nM.
Taken in the same sequence, the figures for “CUCAUUAGUCAGGAUAUCGUGUGGGUAAUUGUACGAGAAGGGACGACAUGAGGAUCACCCAUGUGGUCUUUGGG [JR_Ex6_Sub085] (Eterna round: R97, puzzle: Exclusion 6)” were 70.6 nM and 165 nM.
Consider “CUCCGGCGUGUAGGAUAUGGAUCCGAUUAGGAUCCAGAAGGACAUGAGGAUCACCCAUGUACAUGUAAACAGUCGUCACCGGGC [salish99_ExNG1_r04_206] (Eterna round: R96, puzzle: Exclusion NG 1)”, for which the “apparent KD of MS2 coat protein” value is, setting by setting: (input ligand: FMN 200 uM) 75.9 nM; under setting [2], 14 nM; (input ligand: none) 18.1 nM.
On to “CUCCUACAUGAGGAUCACCCAUGUCAGGAUAUCUCAGUAGCACCUAAAGGUGCUACCCAGAGAAGGGACGUGCA [Enororce] (puzzle: Exclusion 1)”, for which the “apparent KD of MS2 coat protein” value under setting [1] came to 11.1 nM.
For the sequence “CUCGCUGUGGUUAGGAUAUGUGGGUUAGCAGGCGCAUAGAAGGAACAUGAGGAUCACCCAUGUGGGUUGGUGCG [Eternabot (L2) Solution 88] (Eterna round: R97, puzzle: Brourd's mod of Exclusion 4)”, the “apparent KD of MS2 coat protein” value (input ligand: FMN 200 uM) came out at 39.4 nM and the “apparent KD of MS2 coat protein” value (input ligand: none) is 62.7 nM.
As for “CUCGUGCGGCUUUGCUGUGCGGGUACAUGAGGAUCACCCAUGUAGGAUAUGGUGCGCUUUGCGUGCCAGAAGGGCGUGCGUUGG [salish99_ExNG3_r04_011] (Eterna round: R96, puzzle: Exclusion NG 3)”, the “apparent KD of MS2 coat protein” value runs as follows: (input ligand: FMN 200 uM) 36.6 nM; under setting [2], 27.1 nM; (input ligand: none) 27.3 nM.
Regarding “CUCGUGUGAGGAUAUCUAUUCCACGGACGGGAGUCUUGAAGAGAGAAGGCACAUGAGGAUCACCCAUGUAAUAA [Latequ] (puzzle: Exclusion 4)”, the “apparent KD of MS2 coat protein” value under setting [1] is 107 nM.
Turning to “CUCUGUGCAAAGGAUAUGUGAACAGGUCUAAUAACAGAAGGUUGCACUUGAGGAUCACCCAAGUUAAAGGGACC [Ortebi] (Eterna round: R97, puzzle: Exclusion 6)”, the “apparent KD of MS2 coat protein” value (input ligand: FMN 200 uM) worked out at 517 nM and the “apparent KD of MS2 coat protein” value (input ligand: none) turned out to be 462 nM.
Taken in the same sequence, the figures for “CUCUUGUCAGGAUAUCUUACAUAACAAUCGUAGUUACAAUUGGAGAAGGGACAUGAGGAUCACCCAUGUUAGCG [tap-tap-tappy34] (Eterna round: R97, puzzle: Exclusion 4)” were 337 nM and 149 nM.
Take “CUCUUGUGAGGAUAUCGAAGAAAAGAAAAGAAAGAAAAGAACGAGAAGGCACAUGAGGAUCACCCAUGUAAGAA [EteRNA is fun!] (Eterna round: R96, puzzle: Exclusion 4)”: the “apparent KD of MS2 coat protein” value (input ligand: FMN 200 uM) worked out at 127 nM, the “apparent KD of MS2 coat protein” value under setting [2] was 30.4 nM and the “apparent KD of MS2 coat protein” value (input ligand: none) is 39.4 nM.
Taken in the same sequence, the figures for “CUGAACCCGGUAGGAUAUAUUGUGGGCGGGCGUGGAACGACAUGAGGAUCACCCAUGUAAUUGAGGUAGAAGGGCCGAGAGAUU [Excl-NG2-LRO15] (Eterna round: R96, puzzle: Exclusion NG 2)” were 37.9 nM, 23 nM and 46.4 nM.
Regarding “CUGAAUAGAGGAUAUUGUACUGCUGACAUGAGGAUCACCCAUGUAUGUUAACUCGGCCGUCGAGAAGGCUAACAAA [BotMod 13 - Jieux - Exclusion 5] (Eterna round: R97, puzzle: Exclusion 5)”, the “apparent KD of MS2 coat protein” value runs as follows: (input ligand: FMN 200 uM) 16.9 nM; (input ligand: none) 41.2 nM.
In the case of “CUGAGCAGACGGAAAUCCAACAUGAGGAUCACCCAUGUCUCAAAAGCUUUUUGCUCGUCUUAUCUUCCUCUGCUCUC [Cecelein] (puzzle: Sensor v3, turn-off variant 1)”, the “apparent KD of MS2 coat protein” value is, setting by setting: under setting [3], 12.9 nM; under setting [1], 16.8 nM; under setting [4], 11.8 nM.
On the same counts, the results for “CUGAGCAGACGGAGAUCCAACAUGAGGAUCACCCAUGUCUCAAAAGCUUUCUGCUCGUCUUAUCCUCCUCUGUUCUC [Engeonrati] (puzzle: Sensor v3, turn-off variant 1)” are 129 nM, 205 nM and 151 nM.
As for “CUGAGCAGACGGAGAUCCAACAUGAGGAUCACCCAUGUCUCAAAAGCUUUUUGCUCGUCUUAUCCUCCUCUGUUCAC [Esquitian 1] (Eterna round: R97, puzzle: Sensor, turn-off variant 1)”, the “apparent KD of MS2 coat protein” value runs as follows: (input ligand: FMN 200 uM) 26.4 nM; (input ligand: none) 26 nM.
Take “CUGAGGUAGCGGUCCUAUGACAUGAGGAUCACCCAUGUACCUUGCUACAAGCUUUUUGCUCGUCUUAUGAUUCUCGG [JL Atriat mod 8] (Eterna round: R96, puzzle: Sensor v3, turn-off variant 1)”: the “apparent KD of MS2 coat protein” value is, setting by setting: (input ligand: FMN 200 uM) 81.3 nM; under setting [2], 154 nM; (input ligand: none) 82.7 nM.
As to “CUGAGGUAGCGGUCCUAUGACAUGAGGAUCACCCAUGUACCUUGCUACAAGCUUUUUGCUCGUCUUAUGAUUCUCGG [JL Atriat mod 8] (puzzle: Sensor v3, turn-off variant 1)”, the “apparent KD of MS2 coat protein” value under setting [3] was determined as 58.1 nM, the “apparent KD of MS2 coat protein” value under setting [1] was found to be 123 nM and the “apparent KD of MS2 coat protein” value under setting [4] turned out to be 70.2 nM.
In the case of “CUGAUGUCAGGAUAUCGGUGGCUCACUUGUGUGUGCCAGUUCGAGAAGGGACAUGAGGAUCACCCAUGUUUUUA [Exclusion 4 (Mod2 of #36 by Marzena11)] (Eterna round: R97, puzzle: Exclusion 4)”, the “apparent KD of MS2 coat protein” value is 486 nM (input ligand: FMN 200 uM) and 75.2 nM (input ligand: none).
In the case of “CUGAUGUGAGGAUAUGUGAUCUGCCUUCUAUAUAGAUGAUUACAGAAGGCACAUGAGGAUCACCCAUGUAGAUC [Ex4 - 3 - 25] (puzzle: Exclusion 4)”, the “apparent KD of MS2 coat protein” value under setting [1] was 51.8 nM.
As for “CUGAUGUUAGGAUAUCAGGCGCCCGCCACUAGCAGGGCGCAUGAGAAGGGACAUGAGGAUCACCCAUGUAGUAA [Anbionxe] (puzzle: Exclusion 4)”, the “apparent KD of MS2 coat protein” value under setting [1] was 27.3 nM.
On to “CUGAUUCUAGUAAGGAUAUCGGCGUGCACAGCAGCCGAGAAGGUACAUGAGGAUCACCCAUGUUGCUUCAACUU [Eternabot (Original) Solution 43] (Eterna round: R97, puzzle: Brourd's mod of Exclusion 4)”, for which the “apparent KD of MS2 coat protein” value is, setting by setting: (input ligand: FMN 200 uM) 69.5 nM; (input ligand: none) 31.2 nM.
Consider “CUGCUCCGUGUAGGAUAUCGCCGCACCACCCGGCGAGAAGGACAUGAGGAUCACCCAUGUAUGUUAUUAUCACGUGUGGCGCGC [Design 40] (Eterna round: R96, puzzle: Exclusion NG 1)”, for which the “apparent KD of MS2 coat protein” value (input ligand: FMN 200 uM) amounted to 17.6 nM, the “apparent KD of MS2 coat protein” value under setting [2] came to 11.7 nM and the “apparent KD of MS2 coat protein” value (input ligand: none) stood at 15 nM.
For “CUGCUCCGUGUAGGAUAUGCAUACCACCACUAUGCAGAAGGACAUGAGGAUCACCCAUGUAUGUUAUUAUCACGUGAAGCGUCC [Design 19] (Eterna round: R96, puzzle: Exclusion NG 1)”, the “apparent KD of MS2 coat protein” value reads like this: (input ligand: FMN 200 uM) 27.8 nM; under setting [2], 18.1 nM; (input ligand: none) 23.7 nM.
On the same counts, the results for “CUGCUCCGUGUAGGAUAUGCAUACUCCCACUAUGCAGAAGGACAUGAGGAUCACCCAUGUAUGUUAUUAUCACGUGUAGCGUCC [Design 17] (Eterna round: R96, puzzle: Exclusion NG 1)” are 21.1 nM, 14.2 nM and 21.4 nM.
Take “CUGCUGGAGCUUUGCUUUGGUCGUACAUGAGGAUCACCCAUGUAGGAUAUGGUAAAAUUUGCUUGCUAGAAGGAUAGAGUGGUC [salish99_ExNG3_r04_612] (Eterna round: R96, puzzle: Exclusion NG 3)”: the “apparent KD of MS2 coat protein” value (input ligand: FMN 200 uM) turned out to be 88.1 nM, the “apparent KD of MS2 coat protein” value under setting [2] was 34.3 nM and the “apparent KD of MS2 coat protein” value (input ligand: none) came out at 42.4 nM.
For the sequence “CUGCUUUUGGUGAGGAUAUGCGGUAGCUGGGUACCGCAGAAGGCACAUGAGGAUCACCCAUGUGAUCUGAAAGC [Eternabot (L1) Solution 5] (Eterna round: R97, puzzle: Brourd's mod of Exclusion 4)”, the “apparent KD of MS2 coat protein” value is, setting by setting: (input ligand: FMN 200 uM) 687 nM; (input ligand: none) 61.2 nM.
In the case of “CUGGUCCGAGGAUAUAUGAUGUGAAACAUGAGGAUCACCCAUGUAAUAUUAUGGAAGAAAAUAGAAGGCGGACUAG [Mat - Exclusion 5 - JL mod - D38] (puzzle: Exclusion 5)”, the “apparent KD of MS2 coat protein” value is, setting by setting: under setting [3], 37.2 nM; under setting [1], 64.3 nM; under setting [4], 71.5 nM.
With “CUGGUCCGAGGAUAUAUUAAGUGAUACAUGAGGAUCACCCAUGUAAUUUAAUGGAAGUAAAUAGAAGGCGGACUAG [Mat - Exclusion 5 - JL mod - D50] (puzzle: Exclusion 5)”, the “apparent KD of MS2 coat protein” value was found to be 79.8 nM under setting [3], 53 nM under setting [1] and 80.5 nM under setting [4].
